From patent US20080131465A1, “Group a Streptococcus Crge Protein” (priority 2004, published 2008)

T1: LL-37 (Homo sapiens, UniProt P49913)
T1 construct: release the mature C-terminal antimicrobial peptide
T1 sequence (P49913 134-170 limits assumed): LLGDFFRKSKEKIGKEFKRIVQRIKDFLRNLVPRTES


Legend:
GAS strain SF370 WT = format: cell-based, Streptococcus pyogenes; conditions: 1 hour at 37° C., ~10^6 cfu
Procedure: (§1) The mutant was obtained using allelic exchange gene replacement mutagenesis. Positive clones were confirmed by PCR and used for further experiments. Quantitative real time PCR confirmed the absence of crgR mRNA in the mutant. ΔcrgR mutant cathelicidin resistance was tested in a bacterial killing assay. Bacteria were grown in THB to OD600 0.2 and diluted in […] Tris-HCl, pH7.5, containing 5 mM glucose. 1 ml of bacteria (˜10^6 cfu) were incubated together with different concentrations of cathelicidins for 1 hour at 37° C. with no agitation. The bactericidal activity was assessed by plating serial dilutions of the incubation mixtures on THY-blood agar.

[1] = system: ΔcrgR mutant of GAS strain SF370; format: cell-based, Streptococcus pyogenes; conditions: 1 hour at 37° C., ~10^6 cfu
Procedure: as §1

Streptococcus pneumoniae = assay: antimicrobial assay on Streptococcus pneumoniae; format: cell-based
Procedure: as §1
In order to see if a similar mechanism of action was found in other bacteria encoding heterologous proteins, the antimicrobial assay was carried out as described above, except using Streptococcus pneumoniae. […] The experiment was repeated by adding 70 μg of native Spy1542 in addition to 0.4 μM, 0.8 μM or 1.6 μM of LL-37. In this second experiment, 100% survival at 0.4 μM was noted. Therefore Spy1542 appears to be able to inhibit cathelicidin action also in heterologous systems

[2] = system: WT and Δspy1542 mutant strains; assay: FACS analysis of LL-37 localised on the bacterial surface; format: cell-based, Streptococcus pyogenes; conditions: 0.8 μM LL-37; WT versus Δspy1542 mutant; 5 or 10 min at 37° C.
Procedure: An experiment was carried out to see if LL-37 bound to the surface of the bacteria. 0.8 μM LL-37 was added to the bacteria in a method similar to that for the bacterial killing assay. The amount of LL-37 localised on the bacterial surface was then compared for WT and Δspy1542 mutant strains by FACS analysis. […] This “protective” effect also increases with time. The WT strains therefore appear to be shielded against LL-37.

[3] = system: Wild-type, ΔcrgR and ΔcrgR/Δspy1542-43 strains challenged with cathelicidin; assay: bacterial killing assay with purified Spy1542 added to the medium; format: cell-based, Streptococcus pyogenes; conditions: different concentrations of purified Spy1542
Procedure: The involvement of Spy1542 in the resistance mechanism to antimicrobial peptides was investigated further by cloning and expressing Spy1542 as a native protein. The expressed protein was purified by using a Q sepharose column followed by Cu chelating and finally, gel filtration (FIG. 7). The purified protein was successively used to study its effect when added to the medium in bacterial-killing assays.
Wild-type; ΔcrgR and ΔcrgR/Δspy1542-43 strains were challenged with 0.4 μM LL-37 or CRAMP, and added with different concentrations of the purified protein.
In addition, Spy1542 protein was also able to enhance in a dose dependent manner the survival rate of the ΔcrgR mutant (FIG. 8a).

LL-37 = target: T1, LL-37; assay: mass spectrometry of LL-37 in supernatant after Spy1542 treatment; conditions: WT strain, 0.4 μM LL-37, after 30 minutes
Procedure: Spy1542 was therefore used to treat the WT strain challenged with 0.4 μM LL-37 in a process similar to the bacterial killing assay described above. After 30 minutes, the bacteria were pelleted and the supernatant was analysed. It was discovered by mass spectrometry that the LL-37 in the supernatant was unmodified by the action of Spy1542 (FIG. 13).

[4] = system: bacteria challenged with LL-37; assay: pre-treatment of bacteria with Spy1542, washing, then LL-37 challenge; format: cell-based, Streptococcus pyogenes; conditions: Spy1542 added, bacteria pelleted, washed, resuspended; then 0.4 μM LL-37
Procedure: A further experiment was therefore carried out to confirm that the effect of Spy1542 was indirect. Spy1542 was added to the bacteria. The bacteria were then pelleted, washed and resuspended. 0.4 μM LL-37 was then added to the suspension.

Row | Molecule | concentration necessary to kill 50% of bacterial cells (LD50) (GAS strain SF370 WT) [µM] | concentration necessary to kill 50% of bacterial cells (LD50) [1] [µM] | killing of bacteria (Streptococcus pneumoniae; increasing concentrations of LL-37) | amount of LL-37 localised on the bacterial surface [2] | inhibition of CRAMP bactericidal activity ([3]; 0.4 μM CRAMP) | inhibition of LL-37 action (number of colonies, survival rate) ([3]; 0.4 μM LL-37) | survival (Streptococcus pneumoniae; 70 μg native Spy1542 added with 0.4 μM LL-37) [%] | modification of LL-37 in the supernatant by Spy1542 (LL-37) | protective effect against LL-37 after pre-treatment and washing [4]
1 | CC[C@H](C)[C@H](NC(=O)[C@H](CCCCN)NC(=O)[C@H](CCC(=O)O)NC(=O)[C@H](CCCCN)NC(=O)[C@H](CO)NC(=O)[C@H](CCCCN)NC(=O)[C@H](CCCNC(=N)N)NC(=O)[C@H](Cc1ccccc1)NC(=O)[C@H](Cc1ccccc1)NC(=O)[C@H](CC(=O)O)NC(=O)CNC(=O)[C@H](CC(C)C)NC(=O)[C@@H](N)CC(C)C)C(=O)NCC(=O)N[C@@H](CCCCN)C(=O)N[C@@H](CCC(=O)O)C(=O)N[C@@H](Cc1ccccc1)C(=O)N[C@@H](CCCCN)C(=O)N[C@@H](CCCNC(=N)N)C(=O)N[C@H](C(=O)N[C@H](C(=O)N[C@@H](CCC(N)=O)C(=O)N[C@@H](CCCNC(=N)N)C(=O)N[C@H](C(=O)N[C@@H](CCCCN)C(=O)N[C@@H](CC(=O)O)C(=O)N[C@@H](Cc1ccccc1)C(=O)N[C@@H](CC(C)C)C(=O)N[C@@H](CCCNC(=N)N)C(=O)N[C@@H](CC(N)=O)C(=O)N[C@@H](CC(C)C)C(=O)N[C@H](C(=O)N1CCC[C@H]1C(=O)N[C@@H](CCCNC(=N)N)C(=O)N[C@H](C(=O)N[C@@H](CCC(=O)O)C(=O)N[C@@H](CO)C(=O)O)[C@@H](C)O)C(C)C)[C@@H](C)CC)C(C)C)[C@@H](C)CC [LL-37] | 0.103 | 0.28 | shown to kill the bacteria | WT strain had less LL-31 on the bacterial surface |  |  |  |  | 
2 | Spy1542: Streptococcus pyogenes protein encoded by crgE (spy1542), cloned, expressed as native protein and purified; confers resistance to cathelicidins (protein, Streptococcus pyogenes, Streptococcus pyogenes protein encoded by crgE (spy1542), cloned, expressed as native protein and purified; confers resistance to cathelicidins) MESYITPKHQEACVAAIKQIVSYPSVCHEGENGTPFGQAIQDILEATLDLCQGLGFHTYIDPEGYYGYAELGDQKEVLAILCHLDVVPEGDRQLWKTDPFDCVEADGCLFGRGTQDDKGPTMMALFATKALIDAGVTFNKRIRFIFGTDEETLWRCMNRYNDVEEQATFGFAPDSSFPLTYAEKGLLQAKLVGKGSDKLSLEIGQAYNVVPARASYQGDKLEALQKELDKLGFEYVVKEGELTVYGLAQHAKDAPDGINAMIRLAKALVVLEPNKTLDFLANVIDEDGRALNIFGRIEDEPSGKLSFNAAGLTLTKDKAEIRLDIRIPVLADKEKLVQQLSQKAQEYGLTYEEFDYLAPLYVPLDSELVTTLLSVYRKKTGDQSPAQSSGGATFARTMKNCVAFGALFPDAVQTEHQENEHIVLADAYRAMDIYAEAIYRLTR |  |  |  |  | inhibited cathelicidin bactericidal activity in a dose-dependent fashion | inhibits LL-37 action in a dose dependent manner | 100 | unmodified | protective effect of Spy1542 was maintained and that it was dose dependent
